Test results taken from PMC9304779, “Biochemical characterization of the first step in sulfonolipid biosynthesis in Alistipes finegoldii” (The Journal of Biological Chemistry, 2022).

Assays:
[1] = molecular target: cysteate acyl-ACP transferase (SulA), His-tagged (Alistipes finegoldii) (UniProt I3YKQ4); test: AUC; sedimentation velocity, 150 mM NaCl, 1 mM DTT, 20 mM potassium phosphate buffer, pH 7.5, 20 °C, 50,000 rpm, interference optics, c(s) in SEDFIT
[2] = molecular target: cysteate acyl-ACP transferase (SulA), His-tagged (Alistipes finegoldii) (UniProt I3YKQ4); test: as above; remark: listed apart in the source
[3] = molecular target: cysteate acyl-ACP transferase (SulA), His-tagged (Alistipes finegoldii) (UniProt I3YKQ4); test: SEC; calibrated HiLoad 16/600 Superdex 200 column, 200 mM NaCl, 20 mM Tris, pH 8.0; single 85 kDa species against standards
[4] = molecular target: T1, SulA (cysteate acyl-ACP transferase) (Alistipes finegoldii, UniProt I3YKQ4, K281A); test: UV-Vis spectral titration (external aldimine, A430); assay type: binding
T1 construct: gene Alfi_1224
T1 sequence (I3YKQ4 1-423 K281A): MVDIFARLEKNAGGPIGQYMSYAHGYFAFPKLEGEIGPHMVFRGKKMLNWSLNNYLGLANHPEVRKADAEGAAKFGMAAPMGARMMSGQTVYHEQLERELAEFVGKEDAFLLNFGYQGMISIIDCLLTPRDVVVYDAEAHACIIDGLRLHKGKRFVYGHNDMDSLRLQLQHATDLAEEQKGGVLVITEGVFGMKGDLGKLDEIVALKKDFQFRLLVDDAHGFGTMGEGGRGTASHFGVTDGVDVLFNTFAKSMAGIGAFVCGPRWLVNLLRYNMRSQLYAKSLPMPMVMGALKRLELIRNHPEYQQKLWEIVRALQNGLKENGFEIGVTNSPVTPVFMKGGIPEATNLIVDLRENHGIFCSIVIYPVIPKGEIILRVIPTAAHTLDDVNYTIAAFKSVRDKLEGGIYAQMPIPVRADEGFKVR
Text: UV-Vis spectral titration (external aldimine, A430) on SulA (cysteate acyl-ACP transferase) | SulA(K281A) bound cysteate and formed the PLP-cysteate external aldimine normally

[5] = molecular target: T2, SulA (cysteate acyl-ACP transferase) (Alistipes finegoldii, UniProt I3YKQ4); test: as above; assay type: binding
T2 construct: gene Alfi_1224
T2 sequence (I3YKQ4 1-423): T1 sequence (I3YKQ4 1-423 K281A)

[6] = molecular target: T2, SulA (cysteate acyl-ACP transferase); test: X-ray crystal structure […] Å (SeMet-SulA); UV-Vis […] nm internal aldimine; assay type: binding; settings: covalent, internal aldimine at Lys251
[7] = molecular target: cysteate acyl-ACP transferase (SulA), His-tagged (Alistipes finegoldii) (UniProt I3YKQ4)

cysteate acyl-ACP transferase (SulA), His-tagged (from UniProt I3YKQ4 1-423) (enzyme)
stoichiometry N [1]: 4
stoichiometry N [2]: 2
stoichiometry N [3]: 2

N[C@@H](CS(=O)(=O)O)C(=O)O [cysteate]
Kd [4]: 6.11 ± 1.1 mM
Kd [5]: 4.86 ± 0.08 mM

Cc1ncc(COP(=O)(O)O)c(C=O)c1O [PLP]
X-ray crystal structure 2.9 Å (SeMet-SulA); UV-Vis 390 nm internal aldimine [6]: definitively identifies Lys251 as the PLP attachment site

[14C]16:0-acyl carrier protein (from UniProt P0A6A8 1-78) (natural protein)
SulA enzyme activity (formation of 3-keto[14C]capnine, TLC) against 0-200 μM [14C]16:0-ACP with 100 mM cysteate; K0.5 of an allosteric sigmoidal fit [7]: 26.7 µM
